Reference: patent US6682911 (GENERAL HOSPITAL, dated 2004)

Target: T1, human laminin β1 subunit (human, UniProt P07942 22-1786)
T1 construct: 185 kDa chain from laminin 12 isolated from human placental chorionic villi, reduced and resolved by SDS-PAGE; also called 185 kDa band; 185 kDa chain
Test: trimer isolated from placenta; non-reducing then reducing SDS-PAGE and peptide sequencing of the chains
Excerpt: Protein sequencing was done according to Aebersold et al. (1987). The complex laminin 5-laminin 7 was run on a polyacrylamide gel in the presence of 2-mercaptoethanol and blotted onto a nitrocellulose membrane (Biorad). The 190 kDa band of β2 and the 165 kDa α3 band were separately excised and digested by protease trypsin. The digested product was separated by HPLC and one fragment was sequenced on an Applied Biosystems sequenator (Applied Biosystems, Foster City, Calif.). The 205 kDa chain contained a sequence identical to human laminin α2, and was thus identified as human laminin α2 subunit. The 185 kDa produced two peptides identical to human β1, and was thus identified as human laminin β1 subunit. The band at 170 kDa contained three sequences not contained in any known laminin chain. A N-terminal sequence of the 170 kDa chain was also determined. In addition, the N-terminal sequence was not identical to any known laminin sequence.

T1 sequence (P07942 22-1786 Q1022R limits assumed): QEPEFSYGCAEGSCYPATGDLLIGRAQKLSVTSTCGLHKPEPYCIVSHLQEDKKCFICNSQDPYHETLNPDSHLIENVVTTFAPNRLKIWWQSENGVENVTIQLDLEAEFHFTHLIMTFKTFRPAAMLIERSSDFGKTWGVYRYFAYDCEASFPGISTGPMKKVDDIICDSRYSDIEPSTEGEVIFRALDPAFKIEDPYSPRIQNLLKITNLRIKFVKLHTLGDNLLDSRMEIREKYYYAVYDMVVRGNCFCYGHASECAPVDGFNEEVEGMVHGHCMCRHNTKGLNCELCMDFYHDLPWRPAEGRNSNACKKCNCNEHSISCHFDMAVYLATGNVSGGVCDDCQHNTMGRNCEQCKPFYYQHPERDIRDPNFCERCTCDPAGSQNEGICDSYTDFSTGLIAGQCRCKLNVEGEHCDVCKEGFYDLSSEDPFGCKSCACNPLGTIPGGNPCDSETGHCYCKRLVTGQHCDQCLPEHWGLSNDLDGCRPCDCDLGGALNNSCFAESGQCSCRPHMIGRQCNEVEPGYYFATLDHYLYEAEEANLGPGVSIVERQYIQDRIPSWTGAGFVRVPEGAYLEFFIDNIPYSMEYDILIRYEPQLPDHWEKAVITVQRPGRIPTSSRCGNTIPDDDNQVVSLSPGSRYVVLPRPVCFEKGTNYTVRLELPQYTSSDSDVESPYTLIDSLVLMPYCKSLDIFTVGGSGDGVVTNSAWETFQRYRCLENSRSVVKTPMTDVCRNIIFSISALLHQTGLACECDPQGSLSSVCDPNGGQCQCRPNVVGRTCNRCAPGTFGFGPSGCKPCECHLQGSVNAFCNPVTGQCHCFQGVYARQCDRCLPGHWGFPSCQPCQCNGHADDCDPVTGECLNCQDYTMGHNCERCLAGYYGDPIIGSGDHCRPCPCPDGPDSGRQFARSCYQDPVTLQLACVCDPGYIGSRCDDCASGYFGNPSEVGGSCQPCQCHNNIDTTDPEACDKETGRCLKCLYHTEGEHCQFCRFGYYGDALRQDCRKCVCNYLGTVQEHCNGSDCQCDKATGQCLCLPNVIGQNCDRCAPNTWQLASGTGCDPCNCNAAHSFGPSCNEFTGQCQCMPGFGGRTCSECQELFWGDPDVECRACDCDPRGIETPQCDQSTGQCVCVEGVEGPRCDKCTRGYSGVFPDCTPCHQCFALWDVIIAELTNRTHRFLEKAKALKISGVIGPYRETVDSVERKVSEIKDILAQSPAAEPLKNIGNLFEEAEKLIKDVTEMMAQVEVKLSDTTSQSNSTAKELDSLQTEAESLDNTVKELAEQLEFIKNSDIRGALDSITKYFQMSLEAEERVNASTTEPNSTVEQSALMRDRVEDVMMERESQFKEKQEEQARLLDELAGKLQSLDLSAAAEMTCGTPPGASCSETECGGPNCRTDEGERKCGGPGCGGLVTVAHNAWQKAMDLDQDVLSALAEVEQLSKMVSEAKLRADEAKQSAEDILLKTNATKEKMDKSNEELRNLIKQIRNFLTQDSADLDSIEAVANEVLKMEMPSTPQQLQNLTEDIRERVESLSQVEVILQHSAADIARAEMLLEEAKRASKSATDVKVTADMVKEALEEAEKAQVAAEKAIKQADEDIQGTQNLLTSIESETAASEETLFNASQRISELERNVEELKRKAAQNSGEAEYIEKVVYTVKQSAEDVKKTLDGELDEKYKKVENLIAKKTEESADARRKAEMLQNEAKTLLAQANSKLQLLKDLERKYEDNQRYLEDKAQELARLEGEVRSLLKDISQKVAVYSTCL

binding result: binds
B1: human laminin γ3 subunit (other)
chain: AGMGACYDGAGRPQRCLPVFENAAFGRLAQASHTCGSPPEDFCPHVGAAGAGAHCQRCDAADPQRHHNASYLTDFHSQDESTWWQSPSMAFGVQYPTSVNITLRLGKAYEITYVRLKFHTSRPESFAIYKRSRADGPWEPYQFYSASCQKTYGRPEGQYLRPGEDERVAFCTSEFSDISPLSGGNVAFSTLEGRPSAYNFEESPGLQEWVTSTELLISLDRLNTFGDDIFKDPKVLQSYYYAVSDFSVGGRCKCNGHASECGPDVAGQLACRCQHNTTGTDCERCLPFFQDRPWARGTAEAAHECLPCNCSGRSEECTFDRELFRSTGHGGRCHHCRDHTAGPHCERCQENFYHWDPRMPCQPCDCQSAGSLHLQCDDTGTCACKPTVTGWKCDRCLPGFHSLSEGGCRPCTCNPAGSLDTCDPRSGRCPCKENVEGNLCDRCRPGTFNLQPHNPAGCSSCFCYGHSKVCASTAQFQVHHILSDFHQGAEGWWARSVGGSEHSPQWSPNGVLLSPEDEEELTAPGKFLGDQRFSYGQPLILTFRVPPGDSPLPVQLRLEGTGLALSLRHSSLSGPQDARASQGGRAQVPLQETSEDVAPPLPPFHFQRLLANLTSLRLRVSPGPSPAGPVFLTEVRLTSARPGLSPPASWVEICSCPTGYTGQFCESCAPGYKREMPQGGPYASCVPCTCNQHGTCDPNTGICVCSHHTEGPSCERCLPGFYGNPFAGQADDCQPCPCPGQSACTTIPESGEVVCTHCPPGQRGRRCEVCDDGFFGDPLGLFGHPQPCHQCQCSGNVDPNAVGNCDPLSGHCLRCLHNTTGDHCEHCQEGFYGSALAPRPADKCMPCSCHPQGSVSEQMPCDPVTGQCSCLPHVTARDCSRCYPGFFDLQPGRGCRSCKCHPLGSQEDQCHPKTGQCTCRPGVTGQACDRCQLGFFGSSIKGCRACRCSPLGAASAQCHYNGTCVCRPGFEGYKCDRCHYNFFLTADGTHCQQCPSCYALVKEETAKLKARLTLTEGWLQGSDCGSPWGPLDILLGEAPRGDVYQGHHLLPGAREAFLEQMMGLEGAVKAAREQLQRLNKGARCAQAGSQKTCTQLADLEAVLESSEEEILHAAAILASLEIPQEGPSQPTKWSHLAIEARALARSHRDTATKIAATAWRALLASNTSYALLWNLLEGRVALETQRDLEDRYQEVQAAQKALRTAVAEVLPEAESVLATVQQVGADTAPYLALLASPGALPQKSRAEDLGLKAKALEKTVASWQHMATEAARTLQTAAQATLRQTEPLTMARSRLTATFASQLHQGARAALTQASSSVQAATVTVMGARTLLADLEGMKLQFPRPKDQAALQRKADSVSDRLLADTRKKTKQAERMLGNAAPLSSSAKKKGREAEVLAKDSAKLAKALLRERKQAHRRASRLTSQTQATLQQASQQVLASEARRQELEEAERVGAGLSEMEQQIRESRISLEKDIETLSELLARLGSLDTHQAPAQALNETQWALERLRLQLGSPGSLQRKLSLLEQESQQQELQIQGFESDLAEIRADKQNLEAILHSLPENCASWQ
notes: 170 kDa chain from laminin 12 isolated from human placental chorionic villi, reduced and resolved by SDS-PAGE; also called 170 kDa γ3 chain; 170 kDa band
